Data from US20070134724.

Experiments:
[1] = biological target: tau, shortest isoform (tau352)
tau, shortest isoform (tau352), sequence (chain, as listed by the source): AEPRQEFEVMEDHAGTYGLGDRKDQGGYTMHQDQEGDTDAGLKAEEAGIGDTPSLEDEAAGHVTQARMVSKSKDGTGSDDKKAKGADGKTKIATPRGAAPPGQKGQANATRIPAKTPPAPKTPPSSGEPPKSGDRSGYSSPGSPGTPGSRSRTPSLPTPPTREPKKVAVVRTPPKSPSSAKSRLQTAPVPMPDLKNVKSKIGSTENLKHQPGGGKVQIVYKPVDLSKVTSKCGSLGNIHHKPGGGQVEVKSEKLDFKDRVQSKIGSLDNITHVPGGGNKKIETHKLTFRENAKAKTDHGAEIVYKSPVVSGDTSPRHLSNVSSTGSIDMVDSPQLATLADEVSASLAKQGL

Protein | phosphorylation of the short (3R) isoform co-transfected with abl2 (western blot, sandwich ELISA) [1] | phosphorylation of Y-to-F tau mutants co-transfected with abl2 (western blot with anti-pY) (tau) | phosphorylation of tau at Y310 (western blot with YP21) (tau) | phosphorylation of the long (4R) isoform co-transfected with abl2 (western blot, sandwich ELISA) (tau) | tyrosine phosphorylation of tau with and without Gleevec (western blot, ELISA) (tau) | tyrosine phosphorylation of tau in the presence of Gleevec (western blot, ELISA) (tau)
abl2 tyrosine kinase (protein) GQQVGRVGEAPGLQQPQPRGIRGSSAARPSGRRRDPAGRTTETGFNIFTQHDHFASCVEDGFEGDKTGGSSPEALHRPYGCDVEPQALNEAIRWSSKENLLGATESDPNLFVALYDFVASGDNTLSITKGEKLRVLGYNQNGEWSEVRSKNGQGWVPSNYITPVNSLEKHSWYHGPVSRSAAEYLLSSLINGSFLVRESESSPGQLSISLRYEGRVYHYRINTTADGKVYVTAESRFSTLAELVHHHSTVADGLVTTLHYPAPKCNKPTVYGVSPIHDKWEMERTDITMKHKLGGGQYGEVYVGVWKKYSLTVAVKTLKEDTMEVEEFLKEAAVMKEIKHPNLVQLLGVCTLEPPFYIVTEYMPYGNLLDYLRECNREEVTAVVLLYMATQISSAMEYLEKKNFIHRDLAARNCLVGENHVVKVADFGLSRLMTGDTYTAHAGAKFPIKWTAPESLAYNTFSIKSDVWAFGVLLWEIATYGMSPYPGIDLSQVYDLLEKGYRMEQPEGCPPKVYELMRACWKWSPADRPSFAETHQAFETMFHDSSISEEVAEELGRAASSSSVVPYLPRLPILPSKTRTLKKQVENKENIEGAQDATENSASSLAPGFIRGAQASSGSPALPRKQRDKSPSSLLEDAKETCFTRDRKGGFFSSFMKKRNAPTPPKRSSSFREMENQPHKKYELTGNFSSVASLQHADGFSFTPAQQEANLVPPKCYGGSFAQRNLCNDDGGGGGGSGTAGGGWSGITGFFTPRLIKKTLGLRAGKPTASDDTSKPFPRSNSTSSMSSGLPEQDRMAMTLPRNCQRSKLQLERTVSTSSQPEENVDRANDMLPKKSEESAAPSRERPKAKLLPRGATALPLRTPSGDLAITEKDPPGVGVAGVAAAPKGKEKNGGARLGMAGVPEDGEQPGWPSPAKAAPVLPTTHNHKVPVLISPTLKHTPADVQLIGTDSQGNKFKLLSEHQVTSSGDKDRPRRVKPKCAPPPPPVMRLLQHPSICSDPTEEPTALTAGQSTSETQEGGKKAALGAVPISGKAGRPVMPPPQVPLPTSSISPAKMANGTAGTKVALRKTKQAAEKISADKISKEALLECADLLSSALTEPVPNSQLVDTGHQLLDYCSGYVDCIPQTRNKFAFREAVSKLELSLQELQVSSAAAGVPGTNPVLNNLLSCVQEISDVVQR | Y394 was the predominant site of abl2 phosphorylation | Abl2 strongly phosphorylates Y394, with lower levels of phosphorylation at Y197 and Y310 | demonstrating phosphorylation of tau at Y310 | Y394 was the predominant site of abl2 phosphorylation | Abl1 or abl2 transfected into the cell is what directly phosphorylates tau | 
Gleevec-resistant abl2 (T3611 form) (protein) GQQVGRVGEAPGLQQPQPRGIRGSSAARPSGRRRDPAGRTTETGFNIFTQHDHFASCVEDGFEGDKTGGSSPEALHRPYGCDVEPQALNEAIRWSSKENLLGATESDPNLFVALYDFVASGDNTLSITKGEKLRVLGYNQNGEWSEVRSKNGQGWVPSNYITPVNSLEKHSWYHGPVSRSAAEYLLSSLINGSFLVRESESSPGQLSISLRYEGRVYHYRINTTADGKVYVTAESRFSTLAELVHHHSTVADGLVTTLHYPAPKCNKPTVYGVSPIHDKWEMERTDITMKHKLGGGQYGEVYVGVWKKYSLTVAVKTLKEDTMEVEEFLKEAAVMKEIKHPNLVQLLGVCTLEPPFYIVIEYMPYGNLLDYLRECNREEVTAVVLLYMATQISSAMEYLEKKNFIHRDLAARNCLVGENHVVKVADFGLSRLMTGDTYTAHAGAKFPIKWTAPESLAYNTFSIKSDVWAFGVLLWEIATYGMSPYPGIDLSQVYDLLEKGYRMEQPEGCPPKVYELMRACWKWSPADRPSFAETHQAFETMFHDSSISEEVAEELGRAASSSSVVPYLPRLPILPSKTRTLKKQVENKENIEGAQDATENSASSLAPGFIRGAQASSGSPALPRKQRDKSPSSLLEDAKETCFTRDRKGGFFSSFMKKRNAPTPPKRSSSFREMENQPHKKYELTGNFSSVASLQHADGFSFTPAQQEANLVPPKCYGGSFAQRNLCNDDGGGGGGSGTAGGGWSGITGFFTPRLIKKTLGLRAGKPTASDDTSKPFPRSNSTSSMSSGLPEQDRMAMTLPRNCQRSKLQLERTVSTSSQPEENVDRANDMLPKKSEESAAPSRERPKAKLLPRGATALPLRTPSGDLAITEKDPPGVGVAGVAAAPKGKEKNGGARLGMAGVPEDGEQPGWPSPAKAAPVLPTTHNHKVPVLISPTLKHTPADVQLIGTDSQGNKFKLLSEHQVTSSGDKDRPRRVKPKCAPPPPPVMRLLQHPSICSDPTEEPTALTAGQSTSETQEGGKKAALGAVPISGKAGRPVMPPPQVPLPTSSISPAKMANGTAGTKVALRKTKQAAEKISADKISKEALLECADLLSSALTEPVPNSQLVDTGHQLLDYCSGYVDCIPQTRNKFAFREAVSKLELSLQELQVSSAAAGVPGTNPVLNNLLSCVQEISDVVQR |  |  |  |  |  | In the presence of Gleevec, both forms could phosphorylate tau
